Source: patent US10017546B2 (KOREA ADVANCED INSTITUTE OF SCIENCE AND TECHNOLOGY, priority 2015, dated 2018)
Like-named read-outs stand apart in the source and are kept apart here.

What was measured:
biotin-GFP [1] = molecular target: T1, biotin-GFP (Aequorea victoria, UniProt P42212, A206V/E111V/F223Y/F64L/F99S/I128T/I167V/I171V/K158E/K166T/K26E/L221H/M153T/N105K/N149D/N164E/Q80R/S205T/S30R/S65T/T225N/V163A/Y145F/Y39I); details: for percentage of dissociated biotin conjugate after 10 h incubation with excess biotin / Dissociation rate: Biotin-GFP; for percentage of dissociated biotin conjugate after 10 h incubation with excess biotin: 23° C.; for Dissociation rate: excess biotin; for dissociation of biotin-GFP from mRA mutants (in words): mutants at E115, Q46, S23, biotin addition, 45° C. for 30 min
Procedure: After incubation at the indicated temperature (23° C., 37° C., or 45° C.) for varying time points (between 0 to 10 h), protein-conjugate mixtures were loaded onto a 15% native polyacrylamide gel. […] Data as ln(fraction bound) versus time and fitting the data to a straight line by linear regression.

biotin-protein G = assay: Gel-based off-rate measurement against biotin-protein G; assay type: binding; details: 37° C., excess biotin
biotin-DNA = assay: Gel-based off-rate measurement against biotin-DNA-fluorescein; assay type: binding; details: for percentage of dissociated biotin conjugate after 10 h incubation with excess biotin: 23° C.
biotin-GFP [2] = molecular target: T1, biotin-GFP; details: 15% native-PAGE
Text: To monomerize rhizavidin, the present inventors introduced various numbers (one, six, and ten) of charged and hydrophilic amino acids, which have long side chains, at the dimeric interface (FIG. 1(a) and FIG. 4).

biotin-AP = assay: Gel-based off-rate measurement against biotin-AP peptide; assay type: binding; details: 37° C., excess biotin
HeLa cells = assay: Clustering and internalization of biotinylated cell-surface proteins; assay type: cell-based; details: Cy5-labeled avidin proteins, 37° C.
Procedure: Following biotinylation, the cells were washed twice with cold PBS-CM, treated with 100 mM glycine in PBS-CM for blocking, and washed again twice with cold PBS. […] Unbound avidin proteins were removed, and media was replaced with pre-warmed DMEM (37° C.). Cells were incubated for 5, 10, or 30 m at 37° C. Cells were washed, and fixed with 4% formaldehyde in PBS for confocal imaging (ZEISS, LSM510 META). To visualize endosome or lysozome-specific proteins, cells were fixed, permeabilized, and incubated with a primary antibody: anti-Rab11 (a GTPase of recycling endosome, Abcham) or anti-LAM P1 (Lysosomal-associated membrane protein 1, Abcham). Afterward, cells were incubated with a fluorescent secondary antibody (goat anti-rabbit 555, Abcham), and images were acquired with a confocal microscopy (ZEISS, LSM510 META).

[3] = immobilized biotin or biotin-GFP, avidin proteins 5 μM
Procedure: Surface Plasmon Resonance (SPR) Analysis
SPR tests were performed in a Biacore 3000 instrument using dextran CM5 gold chips (GE Healthcare) and a PBS buffer as a running solution.

[4] = Stability / aggregation of monomerized proteins in buffered solutions; assay type: physicochemical; details: up to 1 mg/ml where stated

Row | Molecule | percentage of dissociated biotin conjugate after 10 h incubation with excess biotin (biotin-GFP [1]) | Dissociation rate (biotin-GFP [1]; 37° C.) | Dissociation rate (biotin-GFP [1]; 45° C.) | Dissociation rate (biotin-protein G) | percentage of dissociated biotin conjugate after 10 h incubation with excess biotin (biotin-DNA) | complexes formed with biotin-GFP (biotin-GFP [2]) | Dissociation rate (biotin-AP) | percentage of dissociated biotin conjugate after 10 h incubation with excess biotin (biotin-GFP [1]; listed as MA) | dissociation of biotin-GFP from mRA mutants (in words) (biotin-GFP [1]) | incubation time after which avidin protein was internalized (HeLa cells) | percentage of dissociated biotin conjugate after 10 h incubation with excess biotin (biotin-DNA; listed as monodin) | Dissociation rate (biotin-DNA; 37° C., excess biotin) | dissociation from surface-bound biotin conjugates by SPR [3] | biotin-GFP dissociated after biotin addition (biotin-GFP [1]; excess free biotin, 37° C. for 30 min, native-PAGE) | stability / aggregation in buffered solutions [4]
1 | Rhizavidin (RA): natural dimeric avidin protein from Rhizobium etli; core rhizavidin SEQ ID NO: 1 (protein, amino acid sequence of truncated Rhizavidin) FDASNFKDFSSIASASSSWQNQSGSTMIIQVDSFGNVSGQYVNRAQGTGCQNSPYPLTGRVNGTFIAFSVGWNNSTENCNSATGWTGYAQVNGNNTEIVTSWNLAYEGGSGPAIEQGQDTFQYVPTTE | 18 ± 3.0% for 10 h* | 5.0 ± 0.1 × 10^−5 s^−1 | 6.0 ± 0.6 × 10^−5 s^−1 | 3.2 ± 0.8 × 10^−5 s^−1 | 48 ± 6.1% for 10 h* | two separated complexes | 4.9 ± 0.7 × 10^−5 s^−1 | – | – | – | – | – | – | – | –
2 | Monodin (MA): monomeric avidin-like protein of SEQ ID NO: 3; mRA further carrying S23H, Q46E and E115W (protein, amino acid sequence of MA, mRA further carrying S23H, Q46E and E115W) FDASNFKDFSSIASASSSWQNQHGSTMIIQVDSFGNVSGQYVNRAEGTGCQNSPYPLTGRVNGTFIDFSVKWNNSTENCNSNTQWTGYAQVNGNNTEIVTRWNLKYEGGSGPAIWQGQDTFQYVPTTE | 6.7 ± 1.1% for 10 h* | 2.3±0.1×10^−5 s^−1 | 6.4±0.2×10^−5 s^−1 | 4.6 ± 1.5 × 10^−5 s^−1 | 22 ± 6.0% for 10 h* | – | 5.1 ± 0.7 × 10^−5 s^−1 | less than 7% | highly slowed off-rate | 30 min | 22% | 2.7±0.3×10^−5 s^−1 | not observed | – | –
3 | mRA: monomeric rhizavidin with six interfacial mutations (SEQ ID NO: 2) (protein, amino acid sequence of mRA) FDASNFKDFSSIASASSSWQNQSGSTMIIQVDSFGNVSGQYVNRAQGTGCQNSPYPLTGRVNGTFIDFSVKWNNSTENCNSNTQWTGYAQVNGNNTEIVTRWNLKYEGGSGPAIEQGQDTFQYVPTTE | – | – | – | – | – | – | – | – | – | – | – | – | – | Over 40% | stable without any aggregation
4 | mRAWW: mRA with two tryptophan mutations (E115W and S23W) (protein) FDASNFKDFSSIASASSSWQNQWGSTMIIQVDSFGNVSGQYVNRAQGTGCQNSPYPLTGRVNGTFIDFSVKWNNSTENCNSNTQWTGYAQVNGNNTEIVTRWNLKYEGGSGPAIWQGQDTFQYVPTTE | – | – | – | – | – | – | – | – | the least dissociation of biotin-GFP | – | – | – | – | – | highly prone to aggregation
